# Measured values: the DeepSol protein solubility set
# Test: soluble on expression in E. coli; label from the status in PepcDB or PDB records
row,Sequence,soluble on expression in E. coli
1,MSLGYHTLEVTVGNEAETATVISAPEKIELLDDMKNGSLWGWMSQLYSIRSKGSWGVGDFEDLKTMLVEAKKKTGSDFMLINPMHAAEPVPPLTPSPYLPISRRFINFSYIRPESMPEYLTLSHEDRAEVDALHEQVESLNDDARLIDRDAMWRVKKHALWVIYKAGRTKARQAEFDRYLAECGDEIESYATWCLCYDKWGAPSDDADNWVRKYNRDSEEVAQLREKFPDTLEFYRWLEWVATDQLHAAQQAARKAGMKIGIVADMAVGVHPAGSDVWWNPERFAKGATVGAPPDMFNQQGQDWSQPPLNPIALEQTGFKVYRDMVHDMFANAGAVRIDHILGLFRLWWIPEGKPATDGTYVHYDSDVMLGILALEASRAGGVVVGEDLGVVPAYVSKSLSEHGILGCAVEWFEQMDGVFRTPKDWRPYALASVNTHDMPPAAGYLEYGHVKLREQLGLLSGPVEEFQKSATAEHNAMLNMLVEEGYLDKAALDDEAANENEIVDALYRGLKGSPCKLMAASIVDAVGEKRTQNQPGTNNEYPNWRIPLADGEGNVVPLEKLFDEPRLQEITAIMREGHHHHHH,not soluble
2,MSLHASAIESIETIIVDLPTIRPHKLAMHTMQNQTLVLIRLRCADGIEGLGESTTIGGLAYGNESPDSIKTNIDRFVAPLLIGQDASNINAAMLRLEQSIRGNTFAKSGIESALLDAQGKRLGLPVSELLGGRVRDALPVAWTLASGDTAKDIAEAQKMLDLRRHRIFKLKIGAGEVDRDLAHVIAIKKALGDSASVRVDVNQAWDEAVALRACRILGGNGIDLIEQPISRNNRAGMVRLNASSPAPIMADESIECVEDAFNLAREGAASVFALKIAKNGGPRATLRTAAIAEAAGIGLYGGTMLEGGIGTLASAHAFLTLNKLSWDTELFGPLLLTEDILAEPPVYRDFHLHVSKAPGLGLSLDEERLAFFRRDKTTPVLHHTEGHHHHHH,soluble
3,MSLHDLLLRNVRPMAGEACDIMIRNGKITGFGKFDAEPGLPVEDGKGAIAVPGLIDAHTHLDKTTWGMPWHVNNRAAILRERIDFERENRVQIGIDPHRQSMRHAIGLAANGGTHIRSHVDIDPTHGLKLVEGIWETREKLDGIIDIEVVAFPQSGVMVMPGTVELLDEALKQGCEVLGGIDPCGIDRDPKGQLDILFQLATKHGVPIDIHLHEAADLGAFTMELIFERIRANGMQGNVAISHAFALGMNDYLRVGRLIDEIARLDVAILTTGAPSASVPSIMRLKEAGVRVGGGCDGIRDTWGPWGQPDMLDRAKIIGMKNGLRSDVELAHVLHVVSRGGADVMGIEDYGMEIGCAADFTLLTGETLAHAVVDITPRPLVVKGGRVTARNGKAIVEAPEGHHHHHH,not soluble
4,MSLHINQLLQHANSDLPLLQANFGLERESLRINKTNHRLAQTPHPTALGSRQFHPYIQTDYSESQMELITPVAHSSKEVLRFLGAITDVAERSIDQNQYLWPLSMPPQITEDEIEIAQLEDDFEFSYRQYLDKKYGKILQSISGIHYNMELGADLMNELFELSGYQSFIDFKNDLYLKVAQNFLNYRWFLTYLYGASPLAEKGFLNEELSQTVRSIRNSHLGYVNTDDIKVPFDSLENYISSIEHYVKSGALSAEKEFYSAVRLRGSKHNRDYLTKGITYLEFRCFDLNPFNNRGITQETIDSVHLFILAMLWLDTPKKLNQALDKAQKLNDKIALSHPLEKLPKENSASLIIEAMEALIKHFKLPSYYDDLLIAIKKQVENPKLTLSGRLFEHIKHASLEHFGQKKGQDYHNYAWQNYYALKGYENMELSTQMLLFDTIQKGIHFEILDENDQFLKLWHNDHIEYVKNGNMTSKDNYVIPLAMANKVVTKKILRENGYPVPAGAEFDNKDEALRYYSQIKNKPIVVKPKTTNFGLGISIFETAASHNDYEKALDIAFIEDYSVLVEEFIPGTEYRFFILDGKCEAVLLRVAANVVGDGHSTVRQLVAQKNRDPLRGREHRSPLEIIDLGDIELLMLQQEGYTLEDILPKGKKVNLRGNSNISTGGDSIDVTETMDPSYKQLAANMATAMGAWVCGVDLIIPDTNLKASKGKPNCTCIELNFNPSMYMHTYCYQGPGQVITGKILAKLFPEISTKIEGHHHHHH,soluble
5,MSLHISVMGELDSKADVDRLLESIDENCDCEIHLTFLDANVVPREIVEKIVKLKEHNKCKIFVLKAYLYSYFLSLGISCFLVKKKSILNKDFESKEKLSSQTFEPEKVEKFLWDIYDKYGFDFTEYRKDSIIRRIKISMLRYCMTNFDEFSHLALTDQDVFEQLFLDFSINTTNFFRDPEVFMFLREKVLLFLDSYSHIRIWCVGCSNGKEPYSLAIILKELGMLHKVQIYATDINPYVIEEAKNGLYSVSTINTDIANYKKSGGSKNFTDYFEVNGNYMKVKDDFKDNILFFQHSVIEKGILNEFQMILCRNVMIYFDIPLQKKVLRHFYNSLDSGGFLVMGKSEGMLLNNGYEYFADYNEKYSVYRRKEGHHHHHH,soluble
6,MSLHLSNVILHQLCKNDQDELVVKLRPASLENDASTENLVAELHRVFHSKAGKGFGSFQSDSEFQFWLQEMRKGERDFYDFSQISANRLKEELIKYPFADEGILVFAEYQSLATDYLFIGILPMNQSLKVTEGLDISATDYLDITKMDIAARIDLSSYETDKESNRYLQYIKGRVGRKVADFFLDFLQADIGLDTKQQNLVLMQAVDDFCADSKLEKQEVNEYKKQVYNYCNEQIKSGEEVQISELSGELPPSQDGTSFMDFTKEQGYELEESFPGDRSTVRKLTKYVGAGGGLNISFDSLLLGERIFYDPETDTLTIKGTLEHHHHHH,not soluble
7,MSLHPEQIHNAINCLCLAATATVAGAMISMGCTTGQRSNSRNSRKSSRSNKSKRSQRSKRRSAQRKKSSSRRKKKLRKEKSRKSQRSKRKKRESERRKKERSKRIARSKKSIKRDRERDSDSSRIKKSGSKRNLEKSNRDDSKRKISKDKNSRRSSQEKSHKYSEPLFIPPVDYDDRDRSLKKKKSVRDNNEEGSRRSSSRDKSKDMKEKSQQSKKDSSRKSKKQQKSEKKKSAEQDNRSDPEDDREAEAPNWRRRRRAKEDQNVKARKTKKVKKNEEVPSKKSSKMSKRSKRSTDENLETAKSSRILKDSEPKSSRSSVTSQKIDSSRGMSKLRADALKRMEPKLLVSPNANSDRFQCNEKGCQKGQCSSEARYAQNVRRSASQKSLRAPKENKLKDGSAKTPKVSSTTTPPVDTMRTPTQEPRSIYIETGKSTYGEASKTSGNNARSVYLADPVSAPKAYSVTPQKSTKTPSERKSEKNLEKKASKKSIKSSRSGIQQREVTKTSSKHSSKHSKAPSSKKSSKKSSKKEQKSRALSNSSSKKSVGSHRNKSNR,not soluble
8,MSLHTAQKTRKGEHKWAAVVGLEIHAQISSNSKLFSGSQVRFSAPPNSLVSFFDASLPGTLPVLNRRCVEAAVMTGLALNCHINKKSLFDRKHYFYADLPAGYQITQQRLPIAVNGSLIYGVCAGKKQSQVIPKTVRIKQIQLEQDSGKSLHDNLRSQTLIDLNRAGVGLLEVVLEPDMSCGEEAATAVRELQLILQALGTSQANMAEGQLRVDANISVHHPGEPLGVRTEVKNLNSIRFLAKAIDYEIQRQINELENGGEILNETRSFHHKLGCTMSMRDKEGKQDYRFMPEPNLPPLVLYDATSLPAGADPQQVINIDQIRETLPELPSVTREKLVQQYGMLLEHSFTLLNEVGLLEFFQNVIKETRAEPKKVTSWVLNTFLGYLKQQNLAVSESPVTPSALAELLDLLDSRTISSSAAKQVFEELWKREGKTPGQIVSEKQLELMQDQGALEQLCHSVMEAHPQVVMDVKNRNPRAINKLIGLVRKATQSRADPVMIKEILEKKLSLEGHHHHHH,soluble
9,MSLHYYLGIDCGGTFIKAAIFDQNGTLQSIARRNIPIISEKPGYAERDMDELWNLCAQVIQKTIRQSSILPQQIKAIGISAQGKGAFFLDKDNKPLGRAILSSDQRAYEIVQCWQKENILQKFYPITLQTLWMGHPVSILRWIKENEPSRYEQIHTILMSHDYLRFCLTEKLYCEETNISESNFYNMREGKYDIQLAKLFGITECIDKLPPIIKSNKIAGYVTSRAAEQSGLVEGIPVVGGLFDVVSTALCADLKDDQHLNVVLGTWSVVSGVTHYIDDNQTIPFVYGKYPEKNKFIIHEASPTSAGNLEWFVNQFNLPNYDDINHEIAKLKPASSSVLFAPFLYGSNAKLGMQAGFYGIQSHHTQIHLLQAIYEGVIFSLMSHLERMQVRFPNASTLRVTGGPAKSEVWMQMLADISGMRLEIPNIEETGCLGAALMAMQAESAVEISQILNIDRKIFLPDKNQYSKYQHKYHRYLKFIEALEGHHHHHH,soluble
10,MSLIDARLATEIVVRTVEVMPFDVNVMDAHGVILASSDAARVGEIHAGAQLALARARAVEIDDAMAANLSGARPGINLPLSVRGKVCGVIGVTGEPDAVRGFGELLRVTAELILEREQLTVELRRNARHREEFVLQLLRRTAAAAELEAWADRLGIDMRLAHAAIVCRLSGVDTEPEAGVGQIEAMQSQLAQEWPQLLSAKTSYRELVMFDAVDARAGRDGVLATHAGKRLAALEDTLRKVATQPFSLALGIALDGIDGFERSYQCALATLRVGAARTPQRAAYSYYDFVLPVLLSALSQGWQARQLRLPLTRLLARERRSGALLDTLKAWYAHDGHPSATAQALGIHRNTLDYRLQQIRDATGLDLGAIDDRLWLYIALQTMAGEGHHHHHH,soluble
11,MSLIEIESRELADIPVLHAYPVGQKDTPLPCVIFYHGFTSSSLVYSYFAVALAQAGLRVIMPDAPDHGSRFSGDAARRLNQFWQILLQSMQEFTTLRAAIAEENWLLDDRLAVGGASMGAMTALGITARHPTVRCTASMMGSGYFTSLARSLFPPLIPETAAQQNEFNNIVAPLAEWEATNHLEQLSDRPLLLWHGLDDDVVPADESLRLQQALSETGRDKLLTCSWQPGVRHRITPEALDAAVTFFRQHLEGGSHHHHHH,soluble
12,MSLIFLDYDGTLVPIIMNPEESYADAGLLSLISDLKERFDTYIVTGRSPEEISRFLPLDINMICYHGACSKINGQIVYNNGSDRFLGVFDRIYEDTRSWVSDFPGLRIYRKNLAVLYHLGLMGADMKPKLRSRIEEIARIFGVETYYGKMIIELRVPGVNKGSAIRSVRGERPAIIAGDDATDEAAFEANDDALTIKVGEGETHAKFHVADYIEMRKILKFIEMLGVQKKQEGHHHHHH,soluble
13,MSLIHIAIAEDDFRVAQIHERLIKQLDGFKIIGKAANAKETLALLKEHKADLLLLDIYMPDELGTALIPDIRSRFPEVDIMIITAATETRHLQEALRAGIAHYLIKPVTADKFRQVLLQYKEKRKLLMSQPEVSQSMIDHIFGNGVKTALPAEDLPTGINSITLRKIKEALQTASEGLTAEELGEKMGASRTTARRYAEYLVSKEEARAELEYGIIGRPERKYYLAADEGHHHHHH,soluble
14,MSLIIKNAKVVTHDMQLKEPWAIAGHVHDSIKNTFITLEDSEGNIGIGSCATQNDSEESVKECFDILESFSSSLVGKELGLNENTFGWIASELPLNTEANAAVDIAIHDLWAKREEKTLVDALGKKHQSFDTSITIGVASLEKTIEMAKKHIGNGFSILKIKIGDCVEEDIERMKALFELKPEKIKIRVDANRGYSKEELIKFYEKTLHLGLELIEQPMEVDQNNEMLYFPEEIRKICVADESLQNFDDAVRLLKEPKPFGVFNIKLMKCGGVFAAKKIASLAEENGIELMWGCFDESKISISAALHTALSCENTRYIDLDGFFDLGWDLIEGGYRCENGIMSAIERPGLGVFSEGHHHHHH,soluble
15,MSLIIRKLFEFENAHIVRFCSSKRCKSSIHGHSYKVEVLLESKYLDNAGMVYDFGLLKTYIRQIIDSFDHAITLFKYDDAKYLEEMKKYSSRWICLPVNVSAENFCRVFFILIDALLKQTKMVNGEQGVTLQSIIVHETRTGYAQGFREDAEGHHHHHH,not soluble
16,MSLIKLLALDMDGTLLNEAKEIPQAHITAIHKAIEKGVKLVLCTGRPLFGVLPYYKKLELDLQNEYIIVNNGCSTHQTSDWGLVDWQELSPADIEYLYDLAEKSDVQLTLFDESHYFVLGGKPNQVIENDAKLVFSDLTEISLEEATSGKFRMFQGMFLGTKEQTDDFEQRFAEELCQRFSGVRSQPVIYEAMPLGTTKATALSRLAEILKIDSSEIMAMGDANNDIEMLQFAGLGIAMGNASDYVKSLADAVTSSNEEDGVARAIEKYILEGHHHHHH,soluble
